Experimental data from PMC9482650, “Quantitative fragmentomics allow affinity mapping of interactomes” (Nature Communications, 2022).

Tests used:
Experiment in all cases: holdup assay
Set-up in all cases: key: below the threshold = too weak to quantify, mostly under pKd 3.1 to 4
Conditions in all cases: plain residues with an end cap or a label only (N-terminal biotin on a linker: ado-ado)
[1] = target: AHNAK1, Q09666
[2] = target: T1, APBA1_2, Q02410
T1 sequence (Q02410 742-832, limits assumed, looked up): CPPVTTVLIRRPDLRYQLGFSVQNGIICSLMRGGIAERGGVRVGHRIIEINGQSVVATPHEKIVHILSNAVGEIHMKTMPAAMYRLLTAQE

[3] = target: DLG1_1, Q12959
[4] = target: DLG2_2, Q15700
DLG2_2, Q15700, sequence (Q15700 189-283): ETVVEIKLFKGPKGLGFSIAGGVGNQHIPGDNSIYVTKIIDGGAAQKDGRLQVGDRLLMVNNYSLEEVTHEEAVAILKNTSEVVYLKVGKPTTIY

[5] = target: T2, DLG3_1, Q92796
T2 sequence (Q92796 125-227, limits assumed, looked up): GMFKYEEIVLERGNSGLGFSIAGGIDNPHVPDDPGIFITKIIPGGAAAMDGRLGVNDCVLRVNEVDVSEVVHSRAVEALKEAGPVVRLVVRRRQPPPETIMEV

[6] = target: DLG4_2, P78352
DLG4_2, P78352, sequence (P78352 155-259): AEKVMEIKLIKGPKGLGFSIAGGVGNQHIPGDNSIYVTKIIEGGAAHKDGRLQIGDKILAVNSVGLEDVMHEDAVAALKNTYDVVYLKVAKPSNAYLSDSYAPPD

[7] = target: GORASP1, Q9BQQ3
GORASP1, Q9BQQ3, sequence (Q9BQQ3 1-208): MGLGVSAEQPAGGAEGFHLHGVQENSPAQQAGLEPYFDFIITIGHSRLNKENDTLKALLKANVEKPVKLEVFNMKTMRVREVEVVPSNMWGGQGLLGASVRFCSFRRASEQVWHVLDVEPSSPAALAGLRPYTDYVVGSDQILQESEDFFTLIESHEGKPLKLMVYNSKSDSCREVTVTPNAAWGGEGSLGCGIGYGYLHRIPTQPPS

[8] = target: T3, GRIP1_5, Q9Y3R0
T3 sequence (Q9Y3R0 568-668, limits assumed, looked up): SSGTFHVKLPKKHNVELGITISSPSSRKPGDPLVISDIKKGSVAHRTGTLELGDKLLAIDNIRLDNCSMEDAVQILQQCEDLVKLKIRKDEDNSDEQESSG

[9] = target: GRIP2_3, Q9C0E4
GRIP2_3, Q9C0E4, sequence (Q9C0E4 238-339): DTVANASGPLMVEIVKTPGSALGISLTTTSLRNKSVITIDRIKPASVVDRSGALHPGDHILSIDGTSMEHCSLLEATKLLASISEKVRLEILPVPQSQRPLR

[10] = target: HTRA2, O43464
HTRA2, O43464, sequence (O43464 355-458): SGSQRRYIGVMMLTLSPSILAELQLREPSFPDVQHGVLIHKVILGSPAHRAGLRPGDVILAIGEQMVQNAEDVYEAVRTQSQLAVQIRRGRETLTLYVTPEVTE

[11] = target: Inadl_1, Q8NI35
Inadl_1, Q8NI35, sequence (Q8NI35 113-229): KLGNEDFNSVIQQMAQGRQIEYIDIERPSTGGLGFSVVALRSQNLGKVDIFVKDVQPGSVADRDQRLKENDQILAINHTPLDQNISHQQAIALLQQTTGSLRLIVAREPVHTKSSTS

[12] = target: Inadl_2, Q8NI35
Inadl_2, Q8NI35, sequence (Q8NI35 238-335): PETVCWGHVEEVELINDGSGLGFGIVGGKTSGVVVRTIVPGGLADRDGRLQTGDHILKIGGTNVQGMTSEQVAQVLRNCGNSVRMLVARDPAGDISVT

[13] = target: Inadl_9, Q8NI35
Inadl_9, Q8NI35, sequence (Q8NI35 1530-1615): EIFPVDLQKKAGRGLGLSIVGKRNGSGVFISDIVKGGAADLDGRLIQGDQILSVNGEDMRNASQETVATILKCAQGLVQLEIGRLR

[14] = target: T4, LIN7A, O14910
T4 sequence (O14910 103-200, limits assumed, looked up): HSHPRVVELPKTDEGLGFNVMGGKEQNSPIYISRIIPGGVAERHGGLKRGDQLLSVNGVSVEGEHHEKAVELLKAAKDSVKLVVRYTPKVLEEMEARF

[15] = target: T5, LIN7C, Q9NUP9
T5 sequence (Q9NUP9 88-185, limits assumed, looked up): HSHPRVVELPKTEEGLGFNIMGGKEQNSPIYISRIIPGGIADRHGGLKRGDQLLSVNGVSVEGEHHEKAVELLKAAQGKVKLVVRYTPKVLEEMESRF

[16] = target: MAGI1_1, Q96QZ7
MAGI1_1, Q96QZ7, sequence (Q96QZ7 1-106): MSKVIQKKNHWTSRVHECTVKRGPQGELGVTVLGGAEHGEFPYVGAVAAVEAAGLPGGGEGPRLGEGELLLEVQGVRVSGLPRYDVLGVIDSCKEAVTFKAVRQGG

[17] = target: MAGI1_2, Q96QZ7
MAGI1_2, Q96QZ7, sequence (Q96QZ7 456-580): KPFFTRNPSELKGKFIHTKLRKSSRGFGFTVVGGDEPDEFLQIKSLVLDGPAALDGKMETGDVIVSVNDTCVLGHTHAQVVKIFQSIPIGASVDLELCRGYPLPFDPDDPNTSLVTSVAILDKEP

[18] = target: MAGI2_5, Q86UL8
MAGI2_5, Q86UL8, sequence (Q86UL8 915-1017): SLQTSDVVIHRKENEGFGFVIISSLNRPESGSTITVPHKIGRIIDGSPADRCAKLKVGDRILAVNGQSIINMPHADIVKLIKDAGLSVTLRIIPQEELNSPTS

[19] = target: MAST1, Q9Y2H9
MAST1, Q9Y2H9, sequence (Q9Y2H9 962-1065): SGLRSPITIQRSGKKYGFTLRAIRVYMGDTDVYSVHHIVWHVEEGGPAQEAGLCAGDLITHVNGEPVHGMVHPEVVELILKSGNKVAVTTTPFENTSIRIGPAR

[20] = target: NHERF2_2, Q15599
NHERF2_2, Q15599, sequence (Q15599 142-238): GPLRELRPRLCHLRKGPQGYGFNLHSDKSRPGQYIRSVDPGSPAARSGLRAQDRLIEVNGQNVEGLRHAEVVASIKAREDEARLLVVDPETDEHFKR

[21] = target: T6, PARD3B_1, Q8TEW8
T6 sequence (Q8TEW8 196-299, limits assumed, looked up): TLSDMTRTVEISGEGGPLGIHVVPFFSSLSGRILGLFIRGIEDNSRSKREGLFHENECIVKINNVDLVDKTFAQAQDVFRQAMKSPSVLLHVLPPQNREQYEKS

[22] = target: PARD3_3, Q8TEW0
PARD3_3, Q8TEW0, sequence (Q8TEW0 582-685): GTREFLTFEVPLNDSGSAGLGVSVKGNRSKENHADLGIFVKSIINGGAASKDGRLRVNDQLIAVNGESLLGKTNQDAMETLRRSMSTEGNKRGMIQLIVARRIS

[23] = target: PTPN3, P26045
PTPN3, P26045, sequence (P26045 505-587): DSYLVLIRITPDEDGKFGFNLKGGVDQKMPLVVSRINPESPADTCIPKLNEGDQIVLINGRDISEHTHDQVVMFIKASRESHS

[24] = target: T7, RADIL, Q96JH8
T7 sequence (Q96JH8 971-1071, limits assumed, looked up): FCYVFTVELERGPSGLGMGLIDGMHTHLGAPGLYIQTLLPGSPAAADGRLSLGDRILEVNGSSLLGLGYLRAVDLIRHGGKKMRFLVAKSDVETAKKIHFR

[25] = target: T8, SHANK1, Q9Y566
T8 sequence (Q9Y566 658-767, limits assumed, looked up): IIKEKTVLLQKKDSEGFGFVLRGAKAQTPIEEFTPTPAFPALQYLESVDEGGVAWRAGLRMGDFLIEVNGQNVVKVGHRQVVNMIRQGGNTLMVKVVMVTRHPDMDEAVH

[26] = target: T9, SYNJ2BP, P57105
T9 sequence (P57105 8-110, limits assumed, looked up): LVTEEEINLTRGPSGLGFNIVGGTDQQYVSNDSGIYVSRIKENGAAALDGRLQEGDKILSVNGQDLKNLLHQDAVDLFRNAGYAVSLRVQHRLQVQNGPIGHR

[27] = target: T10, TJP3_3, O95049
T10 sequence (O95049 375-456, limits assumed, looked up): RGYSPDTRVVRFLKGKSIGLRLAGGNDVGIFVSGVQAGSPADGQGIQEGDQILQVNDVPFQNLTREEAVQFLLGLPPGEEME

AHNAK1, Q09666, sequence (Q09666 4-100): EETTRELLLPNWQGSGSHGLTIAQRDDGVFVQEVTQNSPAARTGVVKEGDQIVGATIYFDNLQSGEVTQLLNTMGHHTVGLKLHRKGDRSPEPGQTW

VKRNSKETVV [MARCHF3, Q86UD3]
pKd [1]: below the threshold | pKd [2]: 3.88 | pKd [3]: 5.48 | pKd [4]: 6.12 | pKd [5]: 4.77 | pKd [6]: 6.03 | pKd [7]: 4.09 | pKd [8]: below the threshold | pKd [9]: below the threshold | pKd [10]: below the threshold | pKd [11]: below the threshold | pKd [12]: below the threshold | pKd [13]: below the threshold | pKd [14]: below the threshold | pKd [15]: 3.95 | pKd [16]: below the threshold | pKd [17]: 4.6 | pKd [18]: 3.98 | pKd [19]: below the threshold | pKd [20]: below the threshold | pKd [21]: below the threshold | pKd [22]: below the threshold | pKd [23]: 4.79 | pKd [24]: 4.04 | pKd [25]: below the threshold | pKd [26]: 4.76 | pKd [27]: below the threshold

MQHQRTHTRV [ZSCAN30, Q86W11]
pKd [1]: below the threshold | pKd [2]: 3.52 | pKd [3]: 4.41 | pKd [4]: 4.76 | pKd [5]: 4.03 | pKd [6]: 4.95 | pKd [7]: 4.1 | pKd [8]: below the threshold | pKd [9]: below the threshold | pKd [10]: below the threshold | pKd [11]: below the threshold | pKd [12]: below the threshold | pKd [13]: 3.62 | pKd [14]: below the threshold | pKd [15]: below the threshold | pKd [16]: below the threshold | pKd [17]: 4.87 | pKd [18]: 3.64 | pKd [19]: 3.54 | pKd [20]: 3.67 | pKd [21]: below the threshold | pKd [22]: below the threshold | pKd [23]: below the threshold | pKd [24]: 4.14 | pKd [25]: 4.08 | pKd [26]: 4.28 | pKd [27]: below the threshold

NIAESLESLV [PTPRZ1, P23471]
pKd [1]: below the threshold | pKd [2]: below the threshold | pKd [3]: 4.57 | pKd [4]: 4.72 | pKd [5]: 4.29 | pKd [6]: 5.09 | pKd [7]: below the threshold | pKd [8]: below the threshold | pKd [9]: below the threshold | pKd [10]: below the threshold | pKd [11]: below the threshold | pKd [12]: below the threshold | pKd [13]: 3.76 | pKd [14]: 4.04 | pKd [15]: 4.08 | pKd [16]: below the threshold | pKd [17]: 3.81 | pKd [18]: 5.47 | pKd [19]: below the threshold | pKd [20]: below the threshold | pKd [21]: below the threshold | pKd [22]: 4.18 | pKd [23]: 4.64 | pKd [24]: 4.3 | pKd [25]: below the threshold | pKd [26]: 4.83 | pKd [27]: below the threshold

RQKEVRESKC [SCN8A, Q9UQD0]
pKd [1]: below the threshold | pKd [2]: below the threshold | pKd [3]: below the threshold | pKd [4]: below the threshold | pKd [5]: below the threshold | pKd [6]: 3.52 | pKd [7]: below the threshold | pKd [8]: below the threshold | pKd [9]: below the threshold | pKd [10]: below the threshold | pKd [11]: below the threshold | pKd [12]: below the threshold | pKd [13]: below the threshold | pKd [14]: below the threshold | pKd [15]: 3.84 | pKd [16]: below the threshold | pKd [17]: 3.67 | pKd [18]: 3.61 | pKd [19]: 4.34 | pKd [20]: 3.57 | pKd [21]: below the threshold | pKd [22]: below the threshold | pKd [23]: 4.6 | pKd [24]: below the threshold | pKd [25]: below the threshold | pKd [26]: 4.23 | pKd [27]: below the threshold
